Where no end group is shown, it is not given here. [ ]: non-standard residue; d: D form. pY = N[C@@H](Cc1ccc(OP(=O)(O)O)cc1)C(=O)O
Columns and labels:
Experiment in all cases: Phosphatase assay with ENDY(P)INASL as substrate
Type in all cases: biochemical
CD45 = biological target: T1, CD45 (Homo sapiens, UniProt P08575)
T1 construct: CD45 were purified from placenta and spleen, respectively; from tissue; host or cells: spleen
T1 sequence (P08575 26-1306): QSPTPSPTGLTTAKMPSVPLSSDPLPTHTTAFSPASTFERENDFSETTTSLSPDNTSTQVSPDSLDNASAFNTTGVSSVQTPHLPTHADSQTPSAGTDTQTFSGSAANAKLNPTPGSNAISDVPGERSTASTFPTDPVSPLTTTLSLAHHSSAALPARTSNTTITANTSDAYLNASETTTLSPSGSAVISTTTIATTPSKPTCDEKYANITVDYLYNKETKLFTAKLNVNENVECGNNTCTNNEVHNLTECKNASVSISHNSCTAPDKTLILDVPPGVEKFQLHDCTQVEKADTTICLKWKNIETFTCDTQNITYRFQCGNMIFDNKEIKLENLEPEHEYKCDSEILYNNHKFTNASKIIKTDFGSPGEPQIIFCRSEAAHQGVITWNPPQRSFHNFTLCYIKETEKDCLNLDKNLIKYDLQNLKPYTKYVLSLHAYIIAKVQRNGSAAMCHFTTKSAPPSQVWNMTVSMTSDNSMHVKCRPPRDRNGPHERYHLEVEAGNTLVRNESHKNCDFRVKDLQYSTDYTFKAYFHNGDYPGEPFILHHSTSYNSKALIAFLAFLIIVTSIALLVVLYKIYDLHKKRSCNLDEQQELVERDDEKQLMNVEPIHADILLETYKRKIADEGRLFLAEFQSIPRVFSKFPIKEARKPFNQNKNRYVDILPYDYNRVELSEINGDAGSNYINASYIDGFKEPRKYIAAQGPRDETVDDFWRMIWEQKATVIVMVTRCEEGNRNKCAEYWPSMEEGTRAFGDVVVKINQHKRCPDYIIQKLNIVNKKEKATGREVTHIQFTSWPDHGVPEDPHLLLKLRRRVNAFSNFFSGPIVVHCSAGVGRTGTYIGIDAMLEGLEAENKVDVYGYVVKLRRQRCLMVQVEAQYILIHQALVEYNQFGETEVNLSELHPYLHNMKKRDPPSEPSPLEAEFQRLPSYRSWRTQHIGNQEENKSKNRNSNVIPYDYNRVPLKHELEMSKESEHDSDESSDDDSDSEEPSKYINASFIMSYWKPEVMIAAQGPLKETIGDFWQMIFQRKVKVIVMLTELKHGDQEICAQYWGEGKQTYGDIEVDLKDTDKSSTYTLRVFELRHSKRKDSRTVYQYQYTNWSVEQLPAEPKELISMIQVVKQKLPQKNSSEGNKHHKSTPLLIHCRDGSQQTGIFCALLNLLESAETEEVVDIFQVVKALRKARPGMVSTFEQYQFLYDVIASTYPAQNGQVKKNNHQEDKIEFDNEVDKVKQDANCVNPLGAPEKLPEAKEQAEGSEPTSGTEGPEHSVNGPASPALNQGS
Procedure: (§1) The tyrosine phosphatases TC.PTP, TCΔC11.PTP, and RPTPα were purified from infected Sf9 cells as described recently (Zander et al., Biochemistry 30: 6964-6970, 1991; Daum et al., J. Biol. Chem. 266: 12211-12215, 1991). The 37 kDa form of PTP1B and CD45 were purified from placenta and spleen, respectively (according to Tonks et al., J. Biol. Chem. 263: 6722-6730, 1988; Tonks et al., Biochemistry 27: 8695-8701, 1988).
(§2) Phosphatase assays with ENDY(P)INASL were performed in buffer M6. Aliquots of 30 μl or 60 μl containing the phosphopeptide, the phosphatase (-beads) and effectors were incubated for 10 minutes at 30° C. The reaction was stopped by adding 200 μl of a suspension of 10% activated, acid-washed Norit A charcoal (v/v) in 0.9N HCl, 0.1M pyrophosphate and 2 mM NaH2 PO4 (according to Streuli et al., Proc. Natl. Acad. Sci. USA 86: 8698-8702, 1989). The mixture was cleared by 10-minute centrifugation and the radioactivity of 150 μl of the supernate was determined. Assays with MBP and RCML were performed as described in Tonks et al., J. Biol. Chem. 263: 6722-6730, 1988. Protein concentration was determined with BSA as standard (Bradford, Anal. Biochem. 72: 248-254, 1976).

PTP1B = biological target: T2, PTP1B (Homo sapiens, UniProt P18031); conditions: non-linear regression of substrate saturation curves, mean of two experiments
T2 construct: The 37 kDa form of PTP1B; from tissue; host or cells: placenta
T2 sequence (P18031 1-321 limits assumed): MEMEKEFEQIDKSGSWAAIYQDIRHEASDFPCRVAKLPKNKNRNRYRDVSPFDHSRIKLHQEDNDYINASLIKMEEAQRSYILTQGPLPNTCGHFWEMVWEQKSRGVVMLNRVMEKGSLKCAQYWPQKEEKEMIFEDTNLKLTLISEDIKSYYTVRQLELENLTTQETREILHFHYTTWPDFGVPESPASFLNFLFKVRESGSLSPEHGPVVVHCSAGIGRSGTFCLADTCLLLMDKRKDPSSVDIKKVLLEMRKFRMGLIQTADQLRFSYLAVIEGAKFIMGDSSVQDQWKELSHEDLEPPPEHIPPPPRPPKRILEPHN
Procedure: as §1, §2

RPTPα = biological target: T3, RPTPα (Homo sapiens, UniProt P18433)
T3 construct: made in house; host or cells: Sf9 cells (baculovirus)
Procedure: as §1, §2

TC.PTP = biological target: T4, TC.PTP (Homo sapiens, UniProt P17706); conditions: TC20
T4 construct: made in house; host or cells: Sf9 cells (baculovirus)
T4 sequence (P17706 1-415): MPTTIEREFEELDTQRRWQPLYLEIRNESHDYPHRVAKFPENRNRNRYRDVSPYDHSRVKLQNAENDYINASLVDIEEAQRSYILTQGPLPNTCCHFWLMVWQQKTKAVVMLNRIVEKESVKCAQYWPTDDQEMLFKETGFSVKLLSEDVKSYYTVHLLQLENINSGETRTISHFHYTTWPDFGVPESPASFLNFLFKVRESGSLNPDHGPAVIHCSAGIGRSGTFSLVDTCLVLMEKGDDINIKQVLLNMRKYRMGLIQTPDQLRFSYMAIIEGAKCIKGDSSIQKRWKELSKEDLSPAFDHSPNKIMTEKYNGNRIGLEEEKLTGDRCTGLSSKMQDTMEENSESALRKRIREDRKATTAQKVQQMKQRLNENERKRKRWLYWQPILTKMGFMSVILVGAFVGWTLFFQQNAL
Procedure: as §1, §2

[1] = non-linear regression of substrate saturation curves, mean of two experiments
[2] = one unit = release of 1 nmol phosphate per minute

T3 sequence (P18433 20-802): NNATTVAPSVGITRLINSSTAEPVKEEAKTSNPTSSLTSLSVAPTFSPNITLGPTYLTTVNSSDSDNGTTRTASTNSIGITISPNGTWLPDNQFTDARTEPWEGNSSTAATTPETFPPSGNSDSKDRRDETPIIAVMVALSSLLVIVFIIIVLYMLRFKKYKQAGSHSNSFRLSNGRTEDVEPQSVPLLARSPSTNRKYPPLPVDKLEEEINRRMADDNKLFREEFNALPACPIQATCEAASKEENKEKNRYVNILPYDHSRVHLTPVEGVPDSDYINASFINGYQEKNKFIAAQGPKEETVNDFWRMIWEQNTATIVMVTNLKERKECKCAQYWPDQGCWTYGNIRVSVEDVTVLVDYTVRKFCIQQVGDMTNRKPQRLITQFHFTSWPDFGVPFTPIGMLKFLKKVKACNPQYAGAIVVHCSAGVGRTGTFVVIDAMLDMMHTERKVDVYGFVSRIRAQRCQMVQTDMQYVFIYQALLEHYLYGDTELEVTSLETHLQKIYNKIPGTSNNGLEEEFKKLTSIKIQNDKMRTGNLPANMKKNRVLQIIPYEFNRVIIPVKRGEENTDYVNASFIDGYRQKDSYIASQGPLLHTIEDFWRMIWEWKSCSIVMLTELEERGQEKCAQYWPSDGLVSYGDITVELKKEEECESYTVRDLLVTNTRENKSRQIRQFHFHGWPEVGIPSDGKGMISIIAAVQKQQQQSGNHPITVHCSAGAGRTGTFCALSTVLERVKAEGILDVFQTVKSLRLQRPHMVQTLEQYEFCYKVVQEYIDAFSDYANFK

**Q.** For “ENDY(P)INASL: ENDYINASL phosphorylated on its tyrosine residue (32P), used as PTP substrate (END[pY]INASL; also: phosphate 32P-labelled)”, which Km (CD45; [1]) is on record?
**A.** 13.8 ± 0.28 µM

**Q.** And the Vmax (CD45; [2])?
**A.** 1622 +/- 23 U/mg

**Q.** And the Km (PTP1B)?
**A.** 800 ± 450 nM

**Q.** What about the Km (RPTPα; [1]) of the same substance?
**A.** 32.5 ± 3.06 µM

**Q.** And the Vmax (RPTPα; [2])?
**A.** 1038 +/- 88 U/mg

**Q.** What about the Km (TC.PTP; [1]) of the same substance?
**A.** 1130 ± 140 nM

**Q.** What about the Vmax (TC.PTP; [2]) of the same substance?
**A.** 14221 +/- 7104 U/mg
